# Test: soluble on expression in E. coli; label from the status in PepcDB or PDB records
row,Sequence,soluble on expression in E. coli
1,GMDNSEEKKLEALGAFEISRKMLALAQKNEKSNIFLNAGRGNPNWIQTLARLAFVRLVQFGVTESKLTINNGIMAGYINTDGIRERLFAFLDPDKNDEDKFLIDAVNYCHTELGLNRDKVVAEWVNGAVANNYPVPDRCLVNTEKIINYFLQELSYKDANLAEQTDLFPTEGGTAAIVYAFHSLAENHLLKKGDKIAINEPIFTPYLRIPELKDYELVEVDLHSYEKNDWEIEPNEIEKLKDPSIKALIVVNPTNPTSKEFDTNALNAIKQAVEKNPKLMIISDEVYGAFVPNFKSIYSVVPYNTMLVYSYSKLFGCTGWRLGVIALNEKNVFDDNIAHLDKVELRQLHKRYSSVVLDPDKMKFIDRLCADSRSIGLYHTAGLSTPQQIMEALFSMTHLLTSTNGGSDDPYIDIARKLVSERYDQLHDAMQAPKDETDTNTHYYSLIDIYRLAEKIYGKEFRDYLTNNFEQVDFLLKLAEKNGVVLVDGVGFGAKPGELRVSQANLPTEDYALIGKQVLELLKEYYEEFKQNN,soluble
2,MSLRKEPYLLVFGASVVDVFGFSKASYRPYNSTPGHVKISFGGVCRNIAENMARVGVNTNFMSILGNDEHGKSIVEHSKKIGYHMDDSMVIEGGSTPTYLAILDENGEMVSAIADMKSIGAMNTDFIDSKREIFENAEYTVLDSDNPEIMEYLLKNFKDKTNFILDPVSAEKASWVKHLIKDFHTIKPNRHEAEILAGFPITDTDDLIKASNYFLGLGIKKVFISLDADGIFYNDGVSCGKIKATEVDVKNVTGAGDSFVAGLGYGYMNKMPIEDIVKFAMTMSNITISHEETIHPDMALDTVLAKLEKTTWEEEKYDLNEGHHHHHH,soluble
3,MSLKLWKNATFYQMTAEGDQVSAVLTENGQICAVGEAMDLEKQYVANITETIDLEGKVVFPGFVDAHIHLLWYGQALERLNLNQTTTKKEALALIAERTKQIASDEWLFVEGYDENKWSDEQTLISLADLDEVSQTNPILVRRIDYHSVSINSALQEKIADFSETGFDGGGEIVRDKTGEFIGVLRDNATTMAIDSFPAATPSELSAWLEIAITDLWSKGITGAHSEDLHYFTGFASTLAAFRNTIGSNKMPFRAHLLVHHAELAAFSASNESFVSGDAFLELGAMKIFYDGTVGSRTALMSAGYADNPSEKGLQIHSDQAFEDLVKAARKAGLPVAIHILGDQAFANVIRTLRANPPKEGQYDRLIHTPWLTEALIEEATGLPVLFDIQPQFMASDLPWALEVLGDNHPPLAFAWKTLLQAGFPLAGGSDAPIEVPNPFWGIHAAVTRTANADLDGVGYWPEQALTVFEAIQLYTKGAAFASYKTTTRGQIAPGFVADFTILAEDPFQMKQAELRQVSVVMTVVNEQIVYQKKEGHHHHHH,soluble
4,MGSDKIHHHHHHMIRDARVLRAGFVPREVEHRDAEVNHLSSVLEPITNGEPADTAIVTGPSGAGKTCISQFVTERLREEVLDVETTYVNCWRNYTRFRTLYQILDDLGATIDIHRQSTPHDELVDRLQQHDGPRTVVILDEVDQLEDPSVIYDLHSLPQFAIICIANKEEELFSRVDDRLVSRLRSSEHVRMDKYHDEQLYDILSARAKWGLDEDVITDDQLYRIADAAAGDARLAIGILRTAAGKADRENHERITDDILLNAAEDARAQIKQKSLDSLTPHQRVVYDIVREHGPIGPSEIHERYSEDVDDPRTKRTIRTYLSKMEQYNLLEAEGTSRDREYSLVDSAAASPMQ,not soluble
5,MRSISVGLDREESGSDGLCLGLVVLATLAAGFVAGSDVLRCWGFGPATGDVCLWVEAGFWRCPLPGGGADGQGPGFWDAALREARMFCRSCVGLRMIGWRR,not soluble
6,MGSDKIHHHHHHMTLFLQKGYEETTMREIVHKSGRSKGAIYHHFSSKQEILNFQISLEMDNLRQCLDALISNNQLNAQQKFKGILTYFFENPSLTELTRLHWAEKLPFALLETLKNSLTVVAQYIEAIIQQEIKEKKLNCQYSKELSEILVLLFDIWLDPSIVDFDYQTACQRIDFIALLLEKFDLPLLDENDKNKLKNGLKHYDEKNTL,not soluble
7,SEDDLTKVLNYTKQRQTEPNPEYYGVAKKKNIIKIHLESFQTFLINKKVNGKEVTPFLNKLSSGKEQFTYFPNFFHQTGQGKTSDSEFTMDNSLYGLPQGSAFSLKGDNTYQSLPAILDQKQGYKSDVMHGDYKTFWNRDQVYKHFGIDKFYDATYYDMSDKNVVNLGLKDKIFFKDSANYQAKMKSPFYSHLITLTNHYPFTLDEKDATIEKSNTGDATVDGYIQTARYLDEALEEYINDLKKKGLYDNSVIMIYGDHYGISENHNNAMEKLLGEKITPAKFTDLNRTGFWIKIPGKSGGINNEYAGQVDVMPTILHLAGIDTKNYLMFGTDLFSKGHNQVVPFRNGDFITKDYKYVNGKIYSNKNNELITTQPADFEKNKKQVEKDLEMSDNVLNGDLFRFYKNPDFKKVNPSKYKYETGPK,soluble
8,MSSRNNPARVAIVMGSKSDWATMQFAAEIFEILDVPHHVEVVSAHRTPDKLFSFAETAEENGYQVIIAGAGGAAHLPGMIAAKTLVPVLGVPVQSAALSGVDSLYSIVQMPRGIPVGTLAIGKAGAANAALLAAQILAQHDAELHQRIADWRKAQTDEVLENPDPRGTL,not soluble
9,MCMVMREYNKERLRKAIELWYREEGVRIIKDRVEHYLKFYPVKPRSIKVKEQKRRWGSCTYYNDLLFNWRCIMAPLKVVDYIVVHEMTHMVHKDHSKNYWNFVSKIIPNYKEQKMWLKENGIIMDIMAGDPLEHHHHHH,soluble
10,DDFVSLGTSGWHARVVSTVSDPSEVRQFALPDGGILRIASVLSVGGTADWARSVLLPGVSAKEADALMLQRPRLATGLLSLPSIQGESFPVRSHSVGGCILGMRGNQDPLTLYTAVIEGICMTLAHDIKPGGILPATGGGARSVPWMRILASVTNRNIHVTVSEDAALHGAASLAAYATSAEYLPTLAARAIVEIEPEPEVVASFEPLIAKHLELFRFAAALSY,not soluble
11,MSKTLKIAIDAGHGPQTPGKRCPDDSMREFHFNSVVARYVRDGLAQYEGVQTMFTHADDGSRDVPLQERTDRANAWGADVFVSIHANASGNGWSDARGIETYVYTTRPAQAVKLAEAVQRNLIKETGLKDRGVKAENFHVLRETKMTAILCECGFMTNREEAELLKSDAYRRKCAKAIVAGIAEVYDLTLKQQAHASEPTYSGKFKDVPDGHYAKGATERLAEKGIMNGIGNGLFGFGKPITREDAAVIVDRAITYLEQKISQK,not soluble
12,MSGSIARCETWPFPLHFSLLLLLLDFPACGNKGGLVIFIAHKFSMLRLSMHRASLPLWVGARLLSSTAVLRLEQSAEERTREEELRQRVQQKYRGMQIPEMTHHEYGHFSTTGISASAAHQAARSAGVEGYPGFGGGAFQNRGRVDWLLLLTGCTLVYLSFKILFRQFTRGVNGLELPLWTASIELQAKHILFAVQFQQSEQDQIKKDFEAVRQTNPFVDFFEWVRSRRPEFCCGRKYGADYVMHTLVSCLRSGDGTQLATLARTLQQSMTRKNGDSLQRVDDFVEQLQSAGYLFQGIRGVGSSGVHTPEHSPQPIYTPLREVSQCGVQESDLINALDVKNGEAHSSTPFREAK,soluble
13,AIAGIQAEQSPQNYFEGTVSQPSSRFSTTHKGLSGGYNLGLLVKMELQHSFIGKDNGISYLETKLSGFHHLPVIP,soluble
14,MKKTAIALLAWFVSSASLAATPWQKITHPVPGAAQSIGSFANGCIIGADTLPVQSDNYQVMRTDQRRYFGHPDLVMFIQRLSHQAQQRGLGTVLIGDMGMPAGGRFNGGHASHQTGLDVDIFLQLPKTRWSQAQLLRPQALDLVSRDGKHVVPSRWSSDIASLIKLAAQDNDVTRIFVNPAIKQQLCLDAGNDRDWLRKVRPWFQHRAHMHVRLRCPADSLECEDQPLPPPGDGCGAELQSWFEPPKPGTTKPEKKTPPPLPPSCQALLDEHVL,not soluble
15,MGSDKIHHHHHHMNPLDLIAKRAYPYETEKRDKTYLALNENPFPFPEDLVDEVFRRLNSDALRIYYDSPDEELIEKILSYLDTDFLSKNNVSVGNGADEIIYVMMLMFDRSVFFPPTYSCYRIFAKAVGAKFLEVPLTKDLRIPEVNVGEGDVVFIPNPNNPTGHVFEREEIERILKTGAFVALDEAYYEFHGESYVDFLKKYENLAVIRTFSKAFSLAAQRVGYVVASEKFIDAYNRVRLPFNVSYVSQMFAKVALDHREIFEERTKFIVEERERMKSALREMGYRITDSRGNFVFVFMEKEEKERLLEHLRTKNVAVRSFREGVRITIGKREENDMILRELEVFK,soluble
16,MSLSETASAENLLGAYLKDRRTRLDAAAFGLSGSRRRTPGLRREEVAQRANISPTWYTWLEQGRGGAPSADVLDRIARALMLTDVEREHLFLIGLGRPPEVRYQASDGVSPRLQRVLDALAFSPALVRTATWDVVAWNRAATAVLTDYGAIPPGQRNILRFIFCDPRVRAAQYDWDSVARFVVAAFRADAARAGAVSHVADFVDELCRTSPEFAALWRDNDVRHHGDGTKRLRHPVHGTMSFEYSSFNVEGRSDLSMIVYNPATPEDADRIRTLLAERADEGHHHHHH,soluble
17,MGSDKIHHHHHHMNPQPSGATVDKGSVNPEQISIKTFGGLGLSYLNSPMTILWESQKARILFCYLLISYDQWLHRDKLIDMLWPGCDPVSGAKNFKTTLSRLRKSFMGPRSINPIMTLGEAIRLDFNIFSLDSSQFKGYAQTGIKMLARGDISGARRYLEAAQDEYSGEFLPEEPFDHHICAERAELERLHESVLTSLQKVYQLEGNNDAVEAISFLKAVHTNS,not soluble
18,SNPQIRNPMKAMYPGTFYFQFKNLWEANDRDETWLCFTVEGIKRRSVVSWKTGVFRNQVDSETHCHAERCFLSWFCDDILSPNTKYQVTWYTSWSPCPDCAGEVAEFLARHSNVNLTIFTARLYYFQYPCYQEGLRSLSQEGVAVEIMDYEDFKYCWENFVYNDNEPFKPWKGLKTNFRLLKRRLRESLQ,soluble
19,KAAPEDVRMIMIDPKMLELSIYEGIPHLLAPVVTDMKLAANALNWCVNEMEKRYRLMSFMGVRNLAGFNQKIAEAAARGEKIGNPFSLTPDDPEPLEKLPFIVVVVDEFADLMMTAGKKIEELIARLAQKARAAGIHLILATQRPSVDVITGLIKANIPTRIAFQVSSKIDSRTILDQMGAENLLGQGDMLFLLPGTAYPQRVHGAFASDEEVHRVVEYLKQFGEPDYVDDILSGGGSEELPGIGRSGDDETDPMYDEAVSVVLKTRKASISGVQRALRIGYNRAARLIDQMEAEGIVSAPEHNGNRTILVPLDNA,not soluble
20,MPNLPQKAQQRQPQEHKSRHKATDDTEAPKQQQQQQQQQQSFDVATNANGSSLPASRVKNPEEPGGKSPLVPMRQHHSKVTRPPPPPTLFLENSLLQRQFANPISYLGGPRLQPRSNRTSIDSILSLDLEHHHHHH,not soluble
21,MNVVRYTPWPGQAALQNEIKQVFDRFFEHNGDTDESAVVTAQWVPRVDIKEEPNQFVLYADLPGIDPADIEVQMDKGILSIKGERKTESSSQTEHFSRIERRYGSFHRRFALPDSADADGITASGSHGVLRILIPKQAATTPRRIQVGNAVSSDVALQSMLEHHHHHH,soluble
22,MSLKRYRTLLFDVDDTILDFQAAEALALRLLFEDQNIPLTNDMKAQYKTINQGLWRAFEEGKMTRDEVVNTRFSALLKEYGYEADGALLEQKYRRFLEEGHQLIDGAFDLISNLQQQFDLYIVTNGVSHTQYKRLRDSGLFPFFKDIFVSEDTGFQKPMKEYFNYVFERIPQFSAEHTLIIGDSLTADIKGGQLAGLDTCWMNPDMKPNVPEIIPTYEIRKLEELYHILNIENTVSEGHHHHHH,soluble
23,MGSSGMGVDANGKPIKRQPTTNNNNKKAGNNSNNQKKGNNQNNKNNKNQNGGNRNQNRQHHQPPMMQMVPPFGPMGPGGPGGPGFMGPPNGNMNFFNGQNRRNGSGKNNGNRNGAPPSGYNGPSANNVGQGAIGNNMNGAQPFAGPEPSMEVPGFGKNSNIHELFGKMIWRKMEQINDAALVDQLQNRIMNLIHDALASQNDKQQQQQQQQHQQGFNQQRGMPFGGPGNQNGPFGNNAGFQRF,not soluble
